Assay in all cases: Crosslinking/co-immunoprecipitation/mass spectrometry (TMT quantitative proteomics) to identify irisin receptors
What all share (assay type): binding

The target of experiment [1] is T1, MLO-Y4 cell surface proteins (Mus musculus, UniProt P48997).
T1 construct: endogenous in cells; host or cells: MLO-Y4
T1 sequence (P48997 1-467): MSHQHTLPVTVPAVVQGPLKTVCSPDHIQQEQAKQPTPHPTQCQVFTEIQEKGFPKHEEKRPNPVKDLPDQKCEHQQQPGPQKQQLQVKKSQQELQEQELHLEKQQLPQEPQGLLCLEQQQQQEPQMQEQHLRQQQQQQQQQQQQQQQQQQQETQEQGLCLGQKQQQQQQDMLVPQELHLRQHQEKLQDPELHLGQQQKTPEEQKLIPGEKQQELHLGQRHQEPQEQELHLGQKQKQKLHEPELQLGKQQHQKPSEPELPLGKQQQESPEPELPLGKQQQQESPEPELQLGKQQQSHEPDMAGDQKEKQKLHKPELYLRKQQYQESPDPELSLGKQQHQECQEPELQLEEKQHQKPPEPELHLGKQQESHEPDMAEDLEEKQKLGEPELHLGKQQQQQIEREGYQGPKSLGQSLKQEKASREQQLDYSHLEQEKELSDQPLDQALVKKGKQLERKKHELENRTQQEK
The settings on record: co-precipitated protein Ivl (INVO_MOUSE). The method, then:
(§1) MLO-Y4 cells were seeded on 30×150 mm type-I collagen coated dishes as described in cell culture experiment. At 60% cell density, medium was switched to FreeStyle™ 293 Expression medium. After 4 hours incubation, the cells were chilled on ice for 10 minutes, followed by treatment of 10 nM his-tag irisin or his-tag adipsin for 20 minutes. The cells were then incubated with 1.5 mM DTSSP for 30 minutes on ice to do cross-linking, after washing with 15 ml cold PBS twice. The cross-linking was quenched by addition of a final concentration of 20 mM Tris-pH 7.5. The cells were then harvested and homogenized in 1 ml RIPA buffer containing proteaseinhibitor cocktailand phosphatase-inhibitor cocktail. Whole-cell lysates were homogenized by 10 times passages through a 22G needle fitted to a 3 ml syringe. Homogenized samples were rotated gently in cold room for 20 minutes followed by 15,000×g centrifugation for 10 minutes. After addition of a final concentration of 10 mM imidazole, supernatants were incubated with 100 μl Ni-NTA agarose for 1 hour. After centrifugation at 500×g for 1 minute, the supernatants were aspirated and 1 ml cold RIPA buffer containing 10 mM imidazole were added to the agarose. After 10 minutes rotation in cold room, the supernatants were aspirated and 1 ml cold RIPA buffer containing 30 mM imidazole were added to the agarose. After repeating the washing 3 times, 0.8 ml RIPA buffer containing 250 mM imidazole was added and the agarose was gently rotated in a cold room for 20 minutes. After centrifugation at 1000×g for 2 minutes, the supernatants were transferred to 1.5 ml tube and incubated with 100 μl 0.2% sodium deoxycholate and 100 μl 10% trichloroacetic acid in ice for 1 hour. After centrifugation at 12,000×g for 10 minutes at 4° C., the supernatants were removed and 1 ml cold acetone was added to the pellets followed by vortexing for 10 seconds. After one more washing with cold acetone, the pellets were dried at 37° C., and 39 μl PBS and 13 μl 4×NuPAGE LDS were added to the pellets with a final concentration of 5 mM DTT. Solubilized proteins were incubated at 65° C. for 20 minutes followed by incubation with a final concentration of 14 mM iodoacetamide for 45 minutes in the dark. 38 μl samples were loaded to 4-12% gradient SDS-PAGE for separation followed by Coomassie Blue staining. The gels were submitted to quantitative proteomics.
(§2) For in-gel digestions, gels were stained with Coomassie Blue and were excised into 8 equal segments for control and irisin lanes. Gel pieces were destained and dehydrated with 100% acetonitrile, vacuumed dried, and digested in 25 mM HEPES (pH 8.5) with 500 ng sequencing grade trypsin (Promega) and incubated for an overnight at 37° C. (Shevchenko et al. (1996) Anal. Chem. 68:850-858). Digests were treated with 1% formic acid and purified using C18 Stage-Tips as previously described (Rappsilber et al. (2007) Nat. Protoc. 2:1896-1906). Peptides were eluted with 70% acetonitrile and 1% formic acid, then dried using a speedvac. Isobaric labeling of digested peptides was accomplished using 6-plex tandem mass tag (TMT) reagents (Thermo Fisher Scientific, Rockford, Ill.). Reagents, 5.0 mg, were dissolved in 252 μl acetonitrile (ACN) and 5 μl of the solution was added to the digested peptides dissolved in 25 μl of 200 mM HEPES, pH 8.5. After 1 hour at room temperature, the reaction was quenched by adding 1 μl of 5% hydroxylamine. Labeled peptides were combined and acidified prior to C18 Stage-Tips desalting.
(§3) All LC-MS/MS experiments were performed on an Orbitrap Fusion™ Lumos mass spectrometer (Thermo Fisher Scientific, San Jose, Calif., USA) coupled with a Proxeon EASY-nLC™ 1200 LC pump (Thermo Fisher Scientific). Peptides were separated on a 100 μm inner diameter microcapillary column packed with 35 cm of Accucore™ C18 resin (1.8 μm, 100 Å, Thermo Fisher Scientific). […]

Experiment [2] concerns the target T2, MLO-Y4 cell surface proteins (Mus musculus, UniProt P62880).
T2 construct: endogenous in cells; host or cells: MLO-Y4
The conditions noted are these: co-precipitated protein Gnb2 (GBB2_MOUSE). On the procedure:
as §1, §2, §3

For experiment [3], the target named is T3, MLO-Y4 cell surface proteins (Mus musculus, UniProt P63038).
T3 construct: endogenous in cells; host or cells: MLO-Y4
The settings on record: co-precipitated protein Hspd1 (CH60_MOUSE). The method, then: as §1, §2, §3

For experiment [4], the target named is T4, MLO-Y4 cell surface proteins (Mus musculus, UniProt Q9WTP6).
T4 construct: endogenous in cells; host or cells: MLO-Y4
The settings on record: co-precipitated protein Ak2 (KAD2_MOUSE). The method, then: as §1, §2, §3

Experiment [5] has as its target T5, MLO-Y4 cell surface proteins (Mus musculus, UniProt E9Q0C6).
T5 construct: endogenous in cells; host or cells: MLO-Y4
The settings on record: co-precipitated protein Gm14569 (E9Q0C6_MOUSE). On the procedure: as §1, §2, §3

The target of experiment [6] is T6, MLO-Y4 cell surface proteins (Mus musculus, UniProt P61161).
T6 construct: endogenous in cells; host or cells: MLO-Y4
The settings on record: co-precipitated protein Actr2 (ARP2_MOUSE). The method, then:
as §1, §2, §3

T5 sequence (E9Q0C6 whole entry): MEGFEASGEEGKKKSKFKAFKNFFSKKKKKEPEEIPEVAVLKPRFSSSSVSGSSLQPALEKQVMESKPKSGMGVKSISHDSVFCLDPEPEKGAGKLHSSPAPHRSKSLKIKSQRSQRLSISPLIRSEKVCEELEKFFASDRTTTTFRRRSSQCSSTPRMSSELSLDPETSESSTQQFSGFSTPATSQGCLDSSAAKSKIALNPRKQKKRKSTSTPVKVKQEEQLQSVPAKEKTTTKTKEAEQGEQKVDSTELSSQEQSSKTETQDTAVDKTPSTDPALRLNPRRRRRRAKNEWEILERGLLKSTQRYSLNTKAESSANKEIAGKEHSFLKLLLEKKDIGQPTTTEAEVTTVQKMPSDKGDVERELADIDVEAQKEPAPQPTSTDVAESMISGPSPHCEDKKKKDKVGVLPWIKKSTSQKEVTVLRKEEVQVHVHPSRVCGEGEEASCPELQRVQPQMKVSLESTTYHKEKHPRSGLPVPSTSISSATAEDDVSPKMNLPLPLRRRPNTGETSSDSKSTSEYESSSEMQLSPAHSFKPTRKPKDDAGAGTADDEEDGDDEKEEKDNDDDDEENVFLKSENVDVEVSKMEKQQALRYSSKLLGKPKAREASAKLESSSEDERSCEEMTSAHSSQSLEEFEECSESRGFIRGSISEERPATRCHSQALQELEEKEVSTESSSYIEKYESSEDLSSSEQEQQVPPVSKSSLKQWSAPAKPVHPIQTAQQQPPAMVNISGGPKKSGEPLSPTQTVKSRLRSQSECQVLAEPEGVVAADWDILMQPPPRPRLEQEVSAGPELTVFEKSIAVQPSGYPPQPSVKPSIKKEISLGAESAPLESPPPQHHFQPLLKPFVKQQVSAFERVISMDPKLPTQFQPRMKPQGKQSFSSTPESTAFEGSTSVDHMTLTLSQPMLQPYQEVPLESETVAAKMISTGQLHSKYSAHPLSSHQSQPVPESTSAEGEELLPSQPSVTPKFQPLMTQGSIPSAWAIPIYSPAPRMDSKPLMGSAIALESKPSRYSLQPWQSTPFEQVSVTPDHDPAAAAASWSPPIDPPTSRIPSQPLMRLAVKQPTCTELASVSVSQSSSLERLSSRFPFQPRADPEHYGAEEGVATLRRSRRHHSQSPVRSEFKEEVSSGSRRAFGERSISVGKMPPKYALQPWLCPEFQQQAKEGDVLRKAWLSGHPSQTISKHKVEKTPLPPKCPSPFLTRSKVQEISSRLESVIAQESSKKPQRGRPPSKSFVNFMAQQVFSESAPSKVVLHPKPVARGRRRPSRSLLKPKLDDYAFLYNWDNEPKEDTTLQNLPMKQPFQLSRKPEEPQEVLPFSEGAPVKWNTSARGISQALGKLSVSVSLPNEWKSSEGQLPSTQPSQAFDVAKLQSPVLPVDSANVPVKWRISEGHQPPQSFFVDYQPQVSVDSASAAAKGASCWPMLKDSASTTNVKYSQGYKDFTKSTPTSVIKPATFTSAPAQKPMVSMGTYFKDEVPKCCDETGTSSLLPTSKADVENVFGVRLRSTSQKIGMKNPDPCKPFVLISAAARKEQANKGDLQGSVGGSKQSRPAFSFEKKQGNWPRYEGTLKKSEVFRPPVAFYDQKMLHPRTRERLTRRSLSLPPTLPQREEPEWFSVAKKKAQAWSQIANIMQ
T3 sequence (P63038 27-573): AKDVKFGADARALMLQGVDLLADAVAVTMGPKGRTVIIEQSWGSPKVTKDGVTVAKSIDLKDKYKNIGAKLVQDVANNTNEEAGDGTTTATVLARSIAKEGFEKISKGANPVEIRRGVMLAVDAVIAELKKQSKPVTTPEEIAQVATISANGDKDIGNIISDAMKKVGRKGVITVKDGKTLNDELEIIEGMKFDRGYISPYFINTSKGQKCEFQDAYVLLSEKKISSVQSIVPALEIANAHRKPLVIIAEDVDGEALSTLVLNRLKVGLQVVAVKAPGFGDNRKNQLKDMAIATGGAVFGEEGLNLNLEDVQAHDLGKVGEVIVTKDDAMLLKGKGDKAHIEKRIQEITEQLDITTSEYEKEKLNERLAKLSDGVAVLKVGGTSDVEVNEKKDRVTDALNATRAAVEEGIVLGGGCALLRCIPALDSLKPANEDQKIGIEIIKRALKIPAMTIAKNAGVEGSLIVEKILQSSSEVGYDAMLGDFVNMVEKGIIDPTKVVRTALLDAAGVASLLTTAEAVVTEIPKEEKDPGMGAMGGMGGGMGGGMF
T2 sequence (P62880 whole entry): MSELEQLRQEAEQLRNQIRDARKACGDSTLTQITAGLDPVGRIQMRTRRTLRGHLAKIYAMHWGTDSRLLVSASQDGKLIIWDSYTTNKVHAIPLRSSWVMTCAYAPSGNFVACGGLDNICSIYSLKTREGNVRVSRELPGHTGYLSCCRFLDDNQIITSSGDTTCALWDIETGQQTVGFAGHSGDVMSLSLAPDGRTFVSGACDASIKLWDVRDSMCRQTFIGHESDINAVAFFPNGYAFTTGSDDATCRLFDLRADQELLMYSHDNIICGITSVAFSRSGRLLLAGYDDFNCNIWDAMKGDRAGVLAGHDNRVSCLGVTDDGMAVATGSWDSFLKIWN

B1: irisin: secreted cleaved form of FNDC5; recombinant human/mouse irisin with C-terminal his tag produced in HEK293 cells (protein)
chain: DSPSAPVNVTVRHLKANSAVVSWDVLEDEVVIGFAISQQKKDVRMLRFIQEVNTTTRSCALWDLEEDTEYIVHVQAISIQGQSPASEPVLFKTPREAEKMASKNKDEVTMKE
modifications: left off: small tags and cut ends
notes: secreted cleaved form of FNDC5; recombinant human/mouse irisin with C-terminal his tag produced in HEK293 cells
Turning to B1, the TMT signal-to-noise ratio in experiment [1] worked out at 13.3857; in experiment [2] it was 165.95; in experiment [3], 2002.08; in experiment [4], 61.9776; in experiment [5] it was 8.647; in experiment [6], 84.7644. Moreover, the “irisin/adipsin TMT signal-to-noise ratio” value in experiment [1] was determined as 0.060; in experiment [2], 0.563; in experiment [3] it was 0.470; in experiment [4], 0.546; in experiment [5], 0.039; in experiment [6], 0.552.

Values taken from patent publication US20210063414A1, “METHODS FOR PREVENTING AND/OR TREATING BONE LOSS CONDITIONS BY MODULATING IRISIN” (Dana-Farber Cancer Institute, Inc., priority 2018, published 2021).
